± gives the uncertainty stated by the source.
B1: Membrane-associated guanylate kinase, WW and PDZ domain-containing protein 2, residues 296 to 340; numbered along this chain, Q86UL8 (parent)
chain: EDNEEPDPLPDNWEMAYTEKGEVYFIDHNTKTTSWLDPRLAKKAK
B2: Poly(rC)-binding protein 1, residues 278 to 350; numbered along this chain, Q15365 (parent)
chain: TQTTHELTIPNNLIGCIIGRQGANINEIRQMSGAQIKIANPVEGSSGRQVTITGSAASISLAQYLINARLSSE

Variants of: B1
Test: abundance fitness (aPCA) (normalised: wild type 0, dead -1); higher = more abundant; growth selection in yeast, the domain comes from the species named
Conditions: Homo sapiens

Variant	abundance fitness
W13L	-0.385 ± 0.056
W13G	-0.787 ± 0.054
W13R	-0.642 ± 0.087
W13V	-0.32 ± 0.17
W13S	-0.556 ± 0.069
N3S	0.021 ± 0.049
N3V	-0.042 ± 0.052
N3F	-0.029 ± 0.41
N3M	0.083 ± 0.055
N3C	-0.031 ± 0.2
N3E	-0.173 ± 0.048
N3Q	0.055 ± 0.06
N3R	0.157 ± 0.053
N3Y	0.037 ± 0.08
N3P	-0.109 ± 0.092
N3D	-0.258 ± 0.061
N3L	0.009 ± 0.045
N3G	-0.081 ± 0.059
N3H	0.058 ± 0.097
N3A	-0.099 ± 0.059
N3W	0.059 ± 0.055
P8L	0.021 ± 0.058
P8S	-0.056 ± 0.056
P8R	0.052 ± 0.062
P8Y	-0.228 ± 0.12
P8H	-0.105 ± 0.058

Variant	abundance fitness
P8I	-0.156 ± 0.096
P8G	-0.03 ± 0.044
P8E	-0.069 ± 0.056
P8T	-0.035 ± 0.059
P8A	-0.014 ± 0.054
P8M	0.019 ± 0.074
P8D	-0.121 ± 0.093
E1G	0.009 ± 0.048
E1V	0.035 ± 0.046
E1L	-0.023 ± 0.077
E1H	-0.109 ± 0.31
E1P	0 ± 0.11
E1I	-1.23 ± 0.15
E1R	0.128 ± 0.063
E1Y	0.094 ± 0.12
E1S	-0.154 ± 0.082
E1M	-0.067 ± 0.07
E1K	0.058 ± 0.079
D2C	0.256 ± 0.12
D2R	0.05 ± 0.054
D2W	-0.029 ± 0.064
D2Q	0.08 ± 0.14
D2N	0.072 ± 0.053
D2S	0.068 ± 0.07
D2L	0.072 ± 0.064
D2E	-0.131 ± 0.15

Variant	abundance fitness
D2K	0.116 ± 0.066
D2V	0.074 ± 0.05
D2Y	0.063 ± 0.4
D2A	0.125 ± 0.071
D2P	-0.01 ± 0.11
P10A	-0.528 ± 0.055
P10K	-0.498 ± 0.072
P10I	-0.637 ± 0.069
P10C	-0.654 ± 0.13
P10V	-0.54 ± 0.044
P10H	-0.614 ± 0.061
P10Q	-0.469 ± 0.087
P10D	-0.341 ± 0.045
P10R	-0.532 ± 0.04
P10L	-0.449 ± 0.054
P10G	-0.436 ± 0.041
P10S	-0.47 ± 0.06
P10W	-0.469 ± 0.046
P10N	-0.465 ± 0.052
P10Y	-0.508 ± 0.061
P10T	-0.468 ± 0.063
P10E	-0.376 ± 0.051
P10M	-0.166 ± 0.32
P10F	-0.615 ± 0.091
A16E	-0.239 ± 0.062
A16W	-0.598 ± 0.07

Variant	abundance fitness
A16T	-0.335 ± 0.071
A16F	-0.709 ± 0.23
A16M	-0.254 ± 0.065
A16Y	-0.432 ± 0.093
A16I	-0.529 ± 0.15
A16S	0.002 ± 0.074
A16C	-0.274 ± 0.089
A16G	-0.109 ± 0.052
A16V	-0.271 ± 0.053
A16R	-0.127 ± 0.052
A16D	-0.398 ± 0.14
A16K	-0.119 ± 0.064
A16L	-0.337 ± 0.055
D7V	0.134 ± 0.06
D7W	0.01 ± 0.057
D7Q	0.054 ± 0.12
D7E	-0.008 ± 0.056
D7G	0.104 ± 0.046
D7L	0.04 ± 0.07
D7R	0.044 ± 0.058
D7A	0.185 ± 0.077
D7S	0.04 ± 0.07
D11E	0.033 ± 0.052
D11K	-0.04 ± 0.06
D11H	-0.029 ± 0.062
D11Q	0.091 ± 0.15

Variant	abundance fitness
D11G	-0.096 ± 0.043
D11M	-0.015 ± 0.098
D11T	0.042 ± 0.056
D11R	0.032 ± 0.043
D11S	0.421 ± 0.18
D11V	-0.064 ± 0.051
D11L	0.073 ± 0.063
D11N	-0.011 ± 0.07
D11W	-0.074 ± 0.044
D11A	0.007 ± 0.061
D11P	-0.099 ± 0.11
K20R	-0.032 ± 0.042
K20T	-0.063 ± 0.06
K20D	-0.022 ± 0.063
K20M	-0.004 ± 0.059
K20S	0.002 ± 0.075
K20V	-0.075 ± 0.044
K20G	-0.011 ± 0.042
K20Q	0.018 ± 0.055
K20A	-0.02 ± 0.043
K20C	-0.009 ± 0.092
K20P	-0.353 ± 0.068
K20L	-0.078 ± 0.052
K20W	-0.267 ± 0.06
K20E	0.027 ± 0.067
K20I	-0.12 ± 0.065

Variant	abundance fitness
E4R	0.109 ± 0.056
E4G	0.1 ± 0.07
E4P	0.138 ± 0.18
E4V	0.027 ± 0.044
E4A	0.016 ± 0.056
E4S	0.078 ± 0.089
E4Q	0.306 ± 0.11
E4L	0.03 ± 0.096
E4C	-0.005 ± 0.1
P6E	-0.138 ± 0.061
P6L	0.014 ± 0.044
P6R	0.029 ± 0.041
P6G	-0.004 ± 0.037
P6Y	-0.017 ± 0.054
P6D	-0.266 ± 0.05
P6N	-0.025 ± 0.064
P6H	0.091 ± 0.068
P6S	0.003 ± 0.049
P6W	0.043 ± 0.046
P6C	-0.081 ± 0.04
P6I	-0.088 ± 0.061
P6V	0.034 ± 0.044
P6A	-0.001 ± 0.041
E19W	-0.319 ± 0.062
E19D	-0.025 ± 0.086
E19T	0.018 ± 0.046

Variant	abundance fitness
E19V	-0.079 ± 0.056
E19P	-0.013 ± 0.062
E19S	-0.021 ± 0.066
E19I	-0.117 ± 0.1
E19N	0.031 ± 0.071
E19R	-0.104 ± 0.041
E19G	-0.107 ± 0.043
E19Q	0.02 ± 0.097
E19K	-0.031 ± 0.07
E19L	-0.091 ± 0.053
E19A	0.054 ± 0.052
L9S	-0.453 ± 0.5
Y17I	0.017 ± 0.1
Y17S	-0.03 ± 0.064
Y17N	-0.042 ± 0.15
Y17P	-0.828 ± 0.22
Y17G	-0.349 ± 0.072
Y17K	-0.048 ± 0.1
Y17A	-0.025 ± 0.056
Y17E	-0.42 ± 0.47
Y17L	0.024 ± 0.069
Y17F	-0.029 ± 0.045
Y17R	0.049 ± 0.055
Y17C	0.004 ± 0.067
Y17D	-0.355 ± 0.066
Y17H	0.066 ± 0.089

Variant	abundance fitness
Y17W	0.021 ± 0.048
Y17T	-0.039 ± 0.14
N12S	-0.199 ± 0.077
N12G	0.088 ± 0.061
N12V	-0.703 ± 0.14
N12R	-0.044 ± 0.051
N12M	-0.292 ± 0.072
N12E	-0.303 ± 0.12
N12D	-0.136 ± 0.064
N12W	-0.271 ± 0.091
N12C	-0.163 ± 0.12
N12T	-0.224 ± 0.093
E14R	-0.415 ± 0.06
E14D	-0.097 ± 0.23
E14V	-0.264 ± 0.048
E14L	-0.561 ± 0.069
E14S	-0.083 ± 0.097
E14A	-0.47 ± 0.18
E14W	-1.04 ± 0.14
E14T	-0.162 ± 0.084
E14Q	0.032 ± 0.12
E14F	-0.705 ± 0.1
E14N	-0.241 ± 0.057
T18K	-0.476 ± 0.16
T18C	-0.454 ± 0.061
T18Q	-0.849 ± 0.09

Variant	abundance fitness
T18F	-0.953 ± 0.11
T18A	-0.308 ± 0.061
T18W	-0.725 ± 0.11
T18P	-1.08 ± 0.13
T18G	-0.354 ± 0.048
T18Y	-0.93 ± 0.25
T18S	-0.048 ± 0.077
T18R	-0.91 ± 0.073
T18N	-0.382 ± 0.18
T18I	-0.997 ± 0.14
T18L	-0.514 ± 0.064
T18E	-0.574 ± 0.3
M15V	-0.121 ± 0.084
M15W	-0.198 ± 0.092
M15P	-0.308 ± 0.085
M15C	-0.127 ± 0.095
M15L	-0.026 ± 0.06
M15H	-0.428 ± 0.15
M15G	-0.459 ± 0.11
M15R	-0.106 ± 0.076

Variants of: B2
Test: as above
Conditions: Homo sapiens

Variant	abundance fitness
A68C	0.271 ± 0.14
A68V	-0.185 ± 0.07
A68E	0.21 ± 0.081
A68L	-0.206 ± 0.084
A68I	-0.296 ± 0.21
A68Q	0.14 ± 0.11
A68F	-0.459 ± 0.35
A68M	-0.032 ± 0.1
A68S	0.048 ± 0.078
A68H	0.188 ± 0.2
A68R	-0.001 ± 0.061
A68N	0.163 ± 0.14
A68G	-0.122 ± 0.056
A68W	-0.581 ± 0.17
S72R	0.123 ± 0.077
S72N	0.161 ± 0.23
S72M	-0.058 ± 0.13
S72P	-0.562 ± 0.38
S72T	0.222 ± 0.087
S72G	-0.031 ± 0.071
S72V	-0.072 ± 0.094
S72K	-0.072 ± 0.22

Variant	abundance fitness
S72E	0.222 ± 0.11
S72Y	-0.152 ± 0.28
S72D	-0.107 ± 0.25
S72C	-0.052 ± 0.16
S72I	-0.448 ± 0.39
S72Q	-0.401 ± 0.26
S72L	-0.114 ± 0.088
S72H	-0.07 ± 0.2
S72A	-0.039 ± 0.093
R69A	-0.067 ± 0.1
R69L	-0.328 ± 0.11
R69S	-0.081 ± 0.096
R69H	-0.405 ± 0.17
R69E	-0.371 ± 0.16
R69I	-0.258 ± 0.24
R69C	-0.344 ± 0.18
R69T	-0.079 ± 0.093
R69K	0.119 ± 0.12
R69M	-0.414 ± 0.21
R69F	0.355 ± 0.26
R69P	-0.701 ± 0.22
R69W	-0.596 ± 0.18

Variant	abundance fitness
R69Q	-0.016 ± 0.18
R69G	-0.626 ± 0.14
R69V	-0.479 ± 0.14
N67W	-0.208 ± 0.078
N67P	-0.782 ± 0.26
N67K	-0.137 ± 0.12
N67S	-0.019 ± 0.072
N67M	-0.135 ± 0.089
N67C	-0.193 ± 0.26
N67D	0.066 ± 0.099
N67Q	-0.32 ± 0.11
N67H	-0.146 ± 0.13
N67F	0.034 ± 0.18
N67Y	0.002 ± 0.13
N67V	-0.504 ± 0.11
N67R	-0.147 ± 0.057
N67I	-0.194 ± 0.22
N67E	-0.082 ± 0.075
N67T	-0.148 ± 0.12
N67G	-0.082 ± 0.051
N67A	-0.152 ± 0.079
N67L	-0.18 ± 0.079

Variant	abundance fitness
S71A	-0.037 ± 0.051
S71W	-0.195 ± 0.075
S71T	-0.092 ± 0.068
S71F	-0.21 ± 0.14
S71R	-0.056 ± 0.041
S71I	-0.434 ± 0.24
S71K	-0.03 ± 0.09
S71Q	-0.194 ± 0.11
S71V	-0.14 ± 0.061
S71L	-0.184 ± 0.054
S71D	-0.044 ± 0.1
S71P	0.024 ± 0.06
S71H	-0.371 ± 0.28
S71Y	-0.258 ± 0.14
S71M	0.105 ± 0.074
S71G	-0.062 ± 0.049
E73P	-0.161 ± 0.41
E73T	-0.03 ± 0.29
E73S	0.302 ± 0.21
E73W	-0.325 ± 0.45
E73G	-0.016 ± 0.1
E73C	-0.14 ± 0.17

Variant	abundance fitness
E73R	-0.019 ± 0.12
E73L	-0.004 ± 0.19
E73M	0.245 ± 0.17
E73A	0.078 ± 0.42
E73F	0.315 ± 0.48
E73D	0.212 ± 0.2
E73V	0.182 ± 0.17
L70R	-0.53 ± 0.22
L70S	-0.614 ± 0.34
L70N	-0.465 ± 0.48
L70K	-0.378 ± 0.46
L70V	-0.05 ± 0.15
L70I	-0.217 ± 0.36
L70M	-0.228 ± 0.26
L70P	-0.499 ± 0.25
L70W	-0.521 ± 0.29
I66V	-0.285 ± 0.1
I66W	-1.2 ± 0.35
